Data: US20240091375A1, “AN ANTIBODY FRAGMENT BASED ANTIMICROBIAL CONJUGATE SELECTIVELY TARGETING PSEUDOMONAS” (priority 2020, published 2024)

Columns and labels:
[1] = system: P. aeruginosa; assay: Kill kinetics by ATP measurement (bacterial live dead assay); assay type: cell-based, Pseudomonas aeruginosa; conditions: ATP at different time points, FIG. 7; Histatin 5 and Seq. ID 21 compared with each other
From the text: FIG. 7 is a representative graph showing the kill kinetics of Seq. ID 21, Seq. ID 6, on P. aeruginosa with Histatin 5, positive control—Meropenem, and negative controls—media and culture.
Kill kinetics was done by measuring the adenosine triphosphate (ATP) during different time points using the bacterial live dead assay. […] ID 21 was similar showing bactericidal activity was due to the released Histatin on contact with the Pseudomonas. A positive control used was antibacterial Meropenem drug to show the efficiency of killing. […] The VHH antibody Seq.

[2] = system: whole cell Pseudomonas spp.; assay: Whole cell ELISA binding; conditions: FIG. 6a
From the text: FIG. 6a is a representative graph depicting the binding affinity of Seq. ID21 and Seq. ID 6 to whole cell Pseudomonas spp. in an ELISA assay;
Whole cell ELISA using Pseudomonas spp. were used to determine the binding properties of the conjugate with Seq. ID 21, and VHH Seq. ID 6. […] ID 21. Both the molecules Seq. ID 21 and Seq.

[3] = system: Pseudomonas aeruginosa; assay: Microbiological agar-plate assay for bactericidal activity (MIC-99, MIC-50); assay type: cell-based; conditions: for MIC-50 (minimal inhibitory concentration for killing 50% microorganisms) / MIC-99 (minimal inhibitory concentration for killing 99% microorganisms): in vitro, agar-plate assay; for MIC-99 (minimal inhibitory concentration for killing 99% microorganisms): FIG. 5, Seq. ID6 value printed with 'anaerobic conditions'
Procedure: FIG. 5 is representative microbiological agar-plate assay to determine MIC-99 of purified Seq. ID 21, and Seq. ID 6;
Microbiology assays were done with the purified VHH with Seq. ID 6 and the antibody fragment based antimicrobial conjugate of Seq. ID 21 to see their bactericidal activity. As depicted in FIG. 5, the MIC-99 of the Seq. […] ID21 with a value less than 0.5 μM. The MIC-50 of Seq. ID 6 antibody fragment alone was less than 2.5 μM and that of Seq. ID 21 was less than 0.125 μM.

[4] = system: P. aeruginosa; assay: Turbidity test of P. aeruginosa culture; assay type: cell-based, Pseudomonas aeruginosa; conditions: treated versus untreated control, visual, FIG. 4b
Procedure: FIG. 4b is a representative image of turbidity test of P. aeruginosa culture in the presence (Treated) and the absence (Control) of purified Seq. ID 21;
FIG. 4b represents a turbidity test, wherein sample of the pathogen P. aeruginosa was either left untreated (Control) or was treated by addition of purified Seq. ID 21 (Treated) prodrug.

Molecule: Histatin 5 [reference compound]
- Bactericidal activity in kill kinetics [1]: similar

B1: Seq. ID 6: camelid heavy chain antibody variable region fragment (VHH) specific to Pseudomonas aeruginosa antigen C4 decarboxylase transporter (protein, listed as Camelus dromedarius)
VHH: DVQLQESGGASVQPGGSLLISCEASGLASYSNYCIMWFRQPPGKEREGVAGINLRSGITYYAEAVRPRFTISADSVDGRFAISQDNARNTVYLQMNSLKPEDTAIYYCAAGNLCGGSWSGYRYWGQGTQVTVSS
- Biological activity [2]: showed the desired biological activity
- MIC-50 (minimal inhibitory concentration for killing 50% microorganisms) [3]: less than 2.5 μM
- MIC-99 (minimal inhibitory concentration for killing 99% microorganisms) [3]: 10 µM

B2: Seq. ID 21: 187 amino acid conjugate: human Histatin 5, Elastase B cleavage sequence RGGGLA, Gly-Ser linker, VHH Seq. ID6 (conjugate)
chain: MGDSHAKRHHGYKRKFHEKHHSHRGYDVRGGGLAGGGGSGGGGSGGGGSHMDVQLQESGGASVQPGGSLLISCEASGLASYSNYCIMWFRQPPGKEREGVAGINLRSGITYYAEAVRPRFTISADSVDGRFAISQDNARNTVYLQMNSLKPEDTAIYYCAAGNLCGGSWSGYRYWGQGTQVTVSSLE
modifications: Antibody fragment based antimicrobial conjugate
notes: ID6
- Bactericidal activity in kill kinetics [1]: similar
- Binding ability to whole cell Pseudomonas spp. after conversion of the antibody to conjugate ([2]; ELISA): no loss of binding ability
- Biological activity [2]: showed the desired biological activity
- Reduction of MIC-99 relative to Seq. ID6 antibody fragment alone ([3]; conjugate versus VHH alone): 20 fold
- MIC-50 (minimal inhibitory concentration for killing 50% microorganisms) [3]: less than 0.125 μM
- MIC-99 (minimal inhibitory concentration for killing 99% microorganisms) [3]: less than 0.5 μM
- Turbidity of P. aeruginosa sample after treatment [4]: visually reduced
